The source of these data is publication PMC10786891, “Massively parallel profiling of RNA-targeting CRISPR-Cas13d”.

As a reminder, the Kd is the constant that tells how readily two partners part at equilibrium. Read a low Kd as higher affinity.

To fix the notation:
T1: EsCas13d, nuclease-dead (Eubacterium siraeum, UniProt B0MS50, R295A;H300A;R849A;H854A)
T1 sequence: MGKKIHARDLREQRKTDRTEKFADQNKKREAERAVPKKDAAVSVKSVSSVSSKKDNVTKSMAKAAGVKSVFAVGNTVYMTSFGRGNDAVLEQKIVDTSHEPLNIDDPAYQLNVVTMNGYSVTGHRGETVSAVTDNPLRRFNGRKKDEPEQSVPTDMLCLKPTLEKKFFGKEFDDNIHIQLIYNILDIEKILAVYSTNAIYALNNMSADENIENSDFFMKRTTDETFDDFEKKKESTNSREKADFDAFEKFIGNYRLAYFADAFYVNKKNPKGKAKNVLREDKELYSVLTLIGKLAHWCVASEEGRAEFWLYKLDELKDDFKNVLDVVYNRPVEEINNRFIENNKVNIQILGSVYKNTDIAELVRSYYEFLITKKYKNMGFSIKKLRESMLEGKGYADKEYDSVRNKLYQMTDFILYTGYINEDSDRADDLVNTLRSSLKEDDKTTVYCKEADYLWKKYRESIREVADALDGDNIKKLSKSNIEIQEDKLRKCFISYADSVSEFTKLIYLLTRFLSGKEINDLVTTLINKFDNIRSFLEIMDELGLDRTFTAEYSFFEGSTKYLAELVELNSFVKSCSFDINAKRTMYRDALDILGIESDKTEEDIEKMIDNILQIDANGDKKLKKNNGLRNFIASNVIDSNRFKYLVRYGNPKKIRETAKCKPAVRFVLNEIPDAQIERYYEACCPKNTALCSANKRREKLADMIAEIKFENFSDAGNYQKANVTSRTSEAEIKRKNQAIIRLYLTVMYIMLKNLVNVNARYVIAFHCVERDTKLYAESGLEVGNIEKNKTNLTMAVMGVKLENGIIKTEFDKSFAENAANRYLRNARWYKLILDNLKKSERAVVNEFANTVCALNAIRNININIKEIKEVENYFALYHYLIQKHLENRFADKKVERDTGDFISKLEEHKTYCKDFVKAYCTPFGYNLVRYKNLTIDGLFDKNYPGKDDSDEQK

B1: target 1 insA 3' of 6,insA 3' of 3 (mixed)
RNA 1: CACCCGUGCAAAAAUGCAGGGGUCUAAAACUGAGCGGAUAACCUCUCUAUGG
RNA 2: GGGAAUGGAUCCACAUCUACGAAUUCGUACCAUAGAGAGGUUAUCCAGCUACACCGAGAUCGGAAGAGCACACGU
B2: target 1 insA 3' of 6,insC 3' of 5 (mixed)
RNA 1: CACCCGUGCAAAAAUGCAGGGGUCUAAAACUGAGCGGAUAACCUCUCUAUGG
RNA 2: GGGAAUGGAUCCACAUCUACGAAUUCGUACCAUAGAGAGGUUAUCCAGCCUCACCGAGAUCGGAAGAGCACACGU
B3: target 1 C6G,U8G (mixed)
RNA 1: CACCCGUGCAAAAAUGCAGGGGUCUAAAACUGAGCGGAUAACCUCUCUAUGG
RNA 2: GGGAAUGGAUCCACAUCUACGAAUUCGUACCAUAGAGAGGUUAGCGGCUCACCGAGAUCGGAAGAGCACACGU
B4: target 1 insU 3' of 2,insG 3' of 2 (mixed)
RNA 1: CACCCGUGCAAAAAUGCAGGGGUCUAAAACUGAGCGGAUAACCUCUCUAUGG
RNA 2: GGGAAUGGAUCCACAUCUACGAAUUCGUACCAUAGAGAGGUUAUCCGCUCUGACCGAGAUCGGAAGAGCACACGU
B5: target 1 insA 3' of 12,insA 3' of 7 (mixed)
RNA 1: CACCCGUGCAAAAAUGCAGGGGUCUAAAACUGAGCGGAUAACCUCUCUAUGG
RNA 2: GGGAAUGGAUCCACAUCUACGAAUUCGUACCAUAGAGAGGAUUAUCACGCUCACCGAGAUCGGAAGAGCACACGU
B6: target 1 del7,del22 (mixed)
RNA 1: CACCCGUGCAAAAAUGCAGGGGUCUAAAACUGAGCGGAUAACCUCUCUAUGG
RNA 2: GGGAAUGGAUCCACAUCUACGAAUUCGUACAUAGAGAGGUUAUCGCUCACCGAGAUCGGAAGAGCACACGU
B7: target 1 insU 3' of 18,insC 3' of 18 (mixed)
RNA 1: CACCCGUGCAAAAAUGCAGGGGUCUAAAACUGAGCGGAUAACCUCUCUAUGG
RNA 2: GGGAAUGGAUCCACAUCUACGAAUUCGUACCAUAUCGAGAGGUUAUCCGCUCACCGAGAUCGGAAGAGCACACGU
B8: target 1 C2G,A14G (mixed)
RNA 1: CACCCGUGCAAAAAUGCAGGGGUCUAAAACUGAGCGGAUAACCUCUCUAUGG
RNA 2: GGGAAUGGAUCCACAUCUACGAAUUCGUACCAUAGAGGGGUUAUCCGCUGACCGAGAUCGGAAGAGCACACGU
B9: target 1 insU 3' of 16,insC 3' of 16 (mixed)
RNA 1: CACCCGUGCAAAAAUGCAGGGGUCUAAAACUGAGCGGAUAACCUCUCUAUGG
RNA 2: GGGAAUGGAUCCACAUCUACGAAUUCGUACCAUAGAUCGAGGUUAUCCGCUCACCGAGAUCGGAAGAGCACACGU
B10: target 1 insA 3' of 19,insU 3' of 5 (mixed)
RNA 1: CACCCGUGCAAAAAUGCAGGGGUCUAAAACUGAGCGGAUAACCUCUCUAUGG
RNA 2: GGGAAUGGAUCCACAUCUACGAAUUCGUACCAUAAGAGAGGUUAUCCGUCUCACCGAGAUCGGAAGAGCACACGU
B11: target 1 C2A,G12A (mixed)
RNA 1: CACCCGUGCAAAAAUGCAGGGGUCUAAAACUGAGCGGAUAACCUCUCUAUGG
RNA 2: GGGAAUGGAUCCACAUCUACGAAUUCGUACCAUAGAGAGAUUAUCCGCUAACCGAGAUCGGAAGAGCACACGU
B12: target 1 C2G,C22A (mixed)
RNA 1: CACCCGUGCAAAAAUGCAGGGGUCUAAAACUGAGCGGAUAACCUCUCUAUGG
RNA 2: GGGAAUGGAUCCACAUCUACGAAUUCGUAACAUAGAGAGGUUAUCCGCUGACCGAGAUCGGAAGAGCACACGU
B13: target 1 insU 3' of 21,insG 3' of 4 (mixed)
RNA 1: CACCCGUGCAAAAAUGCAGGGGUCUAAAACUGAGCGGAUAACCUCUCUAUGG
RNA 2: GGGAAUGGAUCCACAUCUACGAAUUCGUACCUAUAGAGAGGUUAUCCGCGUCACCGAGAUCGGAAGAGCACACGU
B14: target 1 C2A,G12U (mixed)
RNA 1: CACCCGUGCAAAAAUGCAGGGGUCUAAAACUGAGCGGAUAACCUCUCUAUGG
RNA 2: GGGAAUGGAUCCACAUCUACGAAUUCGUACCAUAGAGAGUUUAUCCGCUAACCGAGAUCGGAAGAGCACACGU
B15: target 1 A9U,G13A (mixed)
RNA 1: CACCCGUGCAAAAAUGCAGGGGUCUAAAACUGAGCGGAUAACCUCUCUAUGG
RNA 2: GGGAAUGGAUCCACAUCUACGAAUUCGUACCAUAGAGAAGUUUUCCGCUCACCGAGAUCGGAAGAGCACACGU
B16: target 1 U8A,C21U (mixed)
RNA 1: CACCCGUGCAAAAAUGCAGGGGUCUAAAACUGAGCGGAUAACCUCUCUAUGG
RNA 2: GGGAAUGGAUCCACAUCUACGAAUUCGUACUAUAGAGAGGUUAACCGCUCACCGAGAUCGGAAGAGCACACGU
B17: target 1 C6A,A16G (mixed)
RNA 1: CACCCGUGCAAAAAUGCAGGGGUCUAAAACUGAGCGGAUAACCUCUCUAUGG
RNA 2: GGGAAUGGAUCCACAUCUACGAAUUCGUACCAUAGGGAGGUUAUCAGCUCACCGAGAUCGGAAGAGCACACGU
B18: target 1 insC 3' of 19,insG 3' of 14 (mixed)
RNA 1: CACCCGUGCAAAAAUGCAGGGGUCUAAAACUGAGCGGAUAACCUCUCUAUGG
RNA 2: GGGAAUGGAUCCACAUCUACGAAUUCGUACCAUCAGAGAGGGUUAUCCGCUCACCGAGAUCGGAAGAGCACACGU
B19: target 1 insC 3' of 22,insA 3' of 17 (mixed)
RNA 1: CACCCGUGCAAAAAUGCAGGGGUCUAAAACUGAGCGGAUAACCUCUCUAUGG
RNA 2: GGGAAUGGAUCCACAUCUACGAAUUCGUACCCAUAGAAGAGGUUAUCCGCUCACCGAGAUCGGAAGAGCACACGU
B20: target 1 insU 3' of 22,insG 3' of 7 (mixed)
RNA 1: CACCCGUGCAAAAAUGCAGGGGUCUAAAACUGAGCGGAUAACCUCUCUAUGG
RNA 2: GGGAAUGGAUCCACAUCUACGAAUUCGUACUCAUAGAGAGGUUAUCGCGCUCACCGAGAUCGGAAGAGCACACGU
B21: target 1 A16C,G17U (mixed)
RNA 1: CACCCGUGCAAAAAUGCAGGGGUCUAAAACUGAGCGGAUAACCUCUCUAUGG
RNA 2: GGGAAUGGAUCCACAUCUACGAAUUCGUACCAUAUCGAGGUUAUCCGCUCACCGAGAUCGGAAGAGCACACGU
B22: target 1 C6A,U19A (mixed)
RNA 1: CACCCGUGCAAAAAUGCAGGGGUCUAAAACUGAGCGGAUAACCUCUCUAUGG
RNA 2: GGGAAUGGAUCCACAUCUACGAAUUCGUACCAAAGAGAGGUUAUCAGCUCACCGAGAUCGGAAGAGCACACGU
B23: target 1 insG 3' of 22,insA 3' of 4 (mixed)
RNA 1: CACCCGUGCAAAAAUGCAGGGGUCUAAAACUGAGCGGAUAACCUCUCUAUGG
RNA 2: GGGAAUGGAUCCACAUCUACGAAUUCGUACGCAUAGAGAGGUUAUCCGCAUCACCGAGAUCGGAAGAGCACACGU
B24: target 1 insA 3' of 5,insU 3' of 5 (mixed)
RNA 1: CACCCGUGCAAAAAUGCAGGGGUCUAAAACUGAGCGGAUAACCUCUCUAUGG
RNA 2: GGGAAUGGAUCCACAUCUACGAAUUCGUACCAUAGAGAGGUUAUCCGAUCUCACCGAGAUCGGAAGAGCACACGU
B25: target 1 insA 3' of 8,insG 3' of 4 (mixed)
RNA 1: CACCCGUGCAAAAAUGCAGGGGUCUAAAACUGAGCGGAUAACCUCUCUAUGG
RNA 2: GGGAAUGGAUCCACAUCUACGAAUUCGUACCAUAGAGAGGUUAUACCGCGUCACCGAGAUCGGAAGAGCACACGU
B26: target 1 U3C,C7A (mixed)
RNA 1: CACCCGUGCAAAAAUGCAGGGGUCUAAAACUGAGCGGAUAACCUCUCUAUGG
RNA 2: GGGAAUGGAUCCACAUCUACGAAUUCGUACCAUAGAGAGGUUAUACGCCCACCGAGAUCGGAAGAGCACACGU
B27: target 1 insC 3' of 15,insG 3' of 4 (mixed)
RNA 1: CACCCGUGCAAAAAUGCAGGGGUCUAAAACUGAGCGGAUAACCUCUCUAUGG
RNA 2: GGGAAUGGAUCCACAUCUACGAAUUCGUACCAUAGAGCAGGUUAUCCGCGUCACCGAGAUCGGAAGAGCACACGU

For the data set, the target named is T1, EsCas13d, nuclease-dead. In words: crRNA (strand 1, pre-loaded); Mg2+; 40 mM Tris-HCl pH 7.5, 150 mM NaCl, 6 mM MgCl2, 1 mM DTT, 0.1% Tween-20, 0.2 mg/ml BSA; 25 C; 10 min per concentration, then washed. Conditions: tags: His6-TwinStrep-SUMO cleaved; N-terminal SNAP kept (SNAP-Surface 488); label: 3' end held by stalled T7 RNA polymerase.
Regarding B1, binding was put at a Kd of 21.5 ± 2.2 nM. B2 displayed a Kd of 23.9 ± 1.9 nM. Molecule B3 came in with a Kd of 12.8 ± 0.6 nM. B4: the Kd is 8.6 ± 0.6 nM.

Molecule B5 had a Kd of 25.9 ± 2.4 nM. Take B6: binding was put at a Kd of 22.6 ± 1.3 nM. For the molecule B7, the Kd worked out at 84 ± 9 nM.

B8 came in with a Kd of 15.6 ± 1.8 nM. B9 returned a Kd of 47 ± 4 nM.

B10 returned a Kd of 41 ± 6 nM. Take B11: the Kd is 4.57 ± 0.22 nM.

With B12, binding was characterised by a dissociation constant (Kd) of 16.9 ± 1.8 nM. In turn, B13 yielded a Kd of 24.9 ± 2.8 nM. B14 showed a Kd of 9.2 ± 0.4 nM. B15 registered a Kd of 12.9 ± 0.9 nM. Regarding B16, binding was put at a Kd of 9.1 ± 0.4 nM. The value for B17 was 28.8 ± 1.4 nM. B18 showed a Kd of 72 ± 11 nM. For B19, the Kd is 33 ± 5 nM.

B20 had a Kd of 22.8 ± 1.6 nM. For the molecule B21, the Kd was 28 ± 1.4 nM. Turning to B22, binding was put at a Kd of 29.8 ± 1.7 nM. The molecule B23 displayed a Kd of 17.9 ± 2.6 nM. B24 gave a Kd of 6.6 ± 0.6 nM. In the case of B25, the Kd was 7.7 ± 0.5 nM.

Take B26: the Kd amounted to 8 ± 0.4 nM.

The molecule B27 came in with a Kd of 10.7 ± 0.6 nM.
